# Test results from IntAct's records for PubMed 28348268.
# B1: HLA class I histocompatibility antigen, alpha chain G (Homo sapiens), P17693-2 (parent)
# chain: MVVMAPRTLFLLLSGALTLTETWAGSHSMRYFSAAVSRPGRGEPRFIAMGYVDDTQFVRFDSDSACPRMEPRAPWVEQEGPEYWEEETRNTKAHAQTDRMNLQTLRGYYNQSEANPPKTHVTHHPVFDYEATLRCWALGFYPAEIILTWQRDGEDQTQDVELVETRPAGDGTFQKWAAVVVPSGEEQRYTCHVQHEGLPEPLMLRWKQSSLPTIPIMGIVAGLVVLAAVVTGAAVAAVLWRKKSSD
# Variants of: B1
# Details: with lirb2_human LILRB2, Q8N423
# Chain of lirb2_human LILRB2, Q8N423 (Q8N423 whole entry): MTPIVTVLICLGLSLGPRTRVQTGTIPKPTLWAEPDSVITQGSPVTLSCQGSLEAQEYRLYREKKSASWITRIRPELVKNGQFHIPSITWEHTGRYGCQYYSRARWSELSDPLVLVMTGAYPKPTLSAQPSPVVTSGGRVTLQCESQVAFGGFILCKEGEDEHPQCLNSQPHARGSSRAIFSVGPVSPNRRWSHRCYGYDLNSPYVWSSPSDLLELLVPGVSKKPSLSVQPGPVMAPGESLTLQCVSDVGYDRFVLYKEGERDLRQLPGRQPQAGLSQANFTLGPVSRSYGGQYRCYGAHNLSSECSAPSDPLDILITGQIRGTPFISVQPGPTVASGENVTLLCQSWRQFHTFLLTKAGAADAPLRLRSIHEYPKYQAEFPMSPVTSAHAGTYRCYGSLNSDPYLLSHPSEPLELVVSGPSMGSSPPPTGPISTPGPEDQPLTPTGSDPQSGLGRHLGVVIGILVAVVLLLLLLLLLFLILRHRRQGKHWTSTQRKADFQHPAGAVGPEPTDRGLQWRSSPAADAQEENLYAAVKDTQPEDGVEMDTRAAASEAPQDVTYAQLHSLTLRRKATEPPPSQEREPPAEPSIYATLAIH
row,effect of a mutation on the interaction,Variant
1,with no effect,MVVMAPRTLFLLLSGALTLTETWAGSHSMRYFSAAVSRPGRGEPRFIAMGYVDDTQFVRFDSDSASPRMEPRAPWVEQEGPEYWEEETRNTKAHAQTDRMNLQTLRGYYNQSEANPPKTHVTHHPVFDYEATLRCWALGFYPAEIILTWQRDGEDQTQDVELVETRPAGDGTFQKWAAVVVPSGEEQRYTCHVQHEGLPEPLMLRWKQSSLPTIPIMGIVAGLVVLAAVVTGAAVAAVLWRKKSSD [C66S]
